Experimental data reported in the supplement of paper PMC9233669.
Fewer inactive variants are shown than the library holds.

Tests used:
[1] = tested on: biotinyl-Val-oxazolone; experiment: self-aminoacylation, catalytic enhancement (BVO) (fold over background); higher = more active; k-Seq, kA / k0A0; sequences stand for … in GGGAAUGGAUCCACAUCUACGAAUUC…UUCACUGCAGACUUGACGAAGCUG
Outline: (§1)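 Mutagenized RNA pools (0.43 μM; 21-nt variable region) were treated with 2–1250 μM of each biotinyl-aminoacyl-oxazolone. Conditions were 50 μL HEPES/NaCl/KCl/MgCl2/CaCl2 buffer, 5% acetonitrile, pH 6.9–7.0, room temperature, 90 minutes. Catalytic enhancement, the median kA relative to the uncatalyzed rate, was derived from streptavidin capture, qPCR and Illumina sequencing.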

[2] = tested on: biotinyl-Phe-oxazolone; experiment: self-aminoacylation, catalytic enhancement (BFO) (fold over background); higher = more active; k-Seq, kA / k0A0; sequences stand for … in GGGAAUGGAUCCACAUCUACGAAUUC…UUCACUGCAGACUUGACGAAGCUG
Outline: as §1

[3] = tested on: biotinyl-Met-oxazolone; experiment: self-aminoacylation, catalytic enhancement (BMO) (fold over background); higher = more active; k-Seq, kA / k0A0; sequences stand for … in GGGAAUGGAUCCACAUCUACGAAUUC…UUCACUGCAGACUUGACGAAGCUG
Outline: as §1

[4] = tested on: biotinyl-Ile-oxazolone; experiment: self-aminoacylation, catalytic enhancement (BIO) (fold over background); higher = more active; k-Seq, kA / k0A0; sequences stand for … in GGGAAUGGAUCCACAUCUACGAAUUC…UUCACUGCAGACUUGACGAAGCUG
Outline: as §1

[5] = tested on: biotinyl-Leu-oxazolone; experiment: self-aminoacylation, catalytic enhancement (BLO) (fold over background); higher = more active; k-Seq, kA / k0A0; sequences stand for … in GGGAAUGGAUCCACAUCUACGAAUUC…UUCACUGCAGACUUGACGAAGCUG
Outline: as §1

[6] = tested on: biotinyl-Trp-oxazolone; experiment: self-aminoacylation, catalytic enhancement (BWO) (fold over background); higher = more active; k-Seq, kA / k0A0; sequences stand for … in GGGAAUGGAUCCACAUCUACGAAUUC…UUCACUGCAGACUUGACGAAGCUG
Outline: as §1

**Q.** With “AUUCACCUAGGUCGUCGGAUG [Fam2.2 aminoacylation ribozyme variant]” as the sequence, how does the self-aminoacylation [1] read?
**A.** 1.12

**Q.** What about the self-aminoacylation [2] of the same sequence?
**A.** 0.37

**Q.** What about the self-aminoacylation [3] of the same sequence?
**A.** 0.982

**Q.** And the self-aminoacylation [4]?
**A.** 0.909

**Q.** And the self-aminoacylation [5]?
**A.** 0.929

**Q.** What about the self-aminoacylation [6] of the same sequence?
**A.** 0.507

**Q.** How did the self-aminoacylation [1] turn out when “AUUCACCUAGGUCUCCGGGUG [Fam2.2 aminoacylation ribozyme variant]” was run?
**A.** 4.49

**Q.** What about the self-aminoacylation [2] of the same sequence?
**A.** 47.5

**Q.** What about the self-aminoacylation [3] of the same sequence?
**A.** 7.84

**Q.** And the self-aminoacylation [4]?
**A.** 4.71

**Q.** And the self-aminoacylation [5]?
**A.** 9.35

**Q.** And the self-aminoacylation [6]?
**A.** 8.48

**Q.** For “AUUCACCUAGGUCUUCGGGUG [Fam2.2 aminoacylation ribozyme variant]”, which self-aminoacylation [1] is on record?
**A.** 3.71

**Q.** What about the self-aminoacylation [2] of the same sequence?
**A.** 27.4

**Q.** And the self-aminoacylation [3]?
**A.** 4.46

**Q.** And the self-aminoacylation [4]?
**A.** 3.33

**Q.** What about the self-aminoacylation [5] of the same sequence?
**A.** 5.48

**Q.** And the self-aminoacylation [6]?
**A.** 4.38

**Q.** For “AUUCACCUAGGUCUUCGGUUG [Fam2.2 aminoacylation ribozyme variant]”, which self-aminoacylation [1] is on record?
**A.** 1.41

**Q.** And the self-aminoacylation [2]?
**A.** 9.48

**Q.** What about the self-aminoacylation [3] of the same sequence?
**A.** 1.76

**Q.** And the self-aminoacylation [4]?
**A.** 1.55

**Q.** And the self-aminoacylation [5]?
**A.** 1.75

**Q.** And the self-aminoacylation [6]?
**A.** 1.72

**Q.** For “AUUCACCUAGGUCUUCUGGUG [Fam2.2 aminoacylation ribozyme variant]”, which self-aminoacylation [1] is on record?
**A.** 3.86

**Q.** What about the self-aminoacylation [2] of the same sequence?
**A.** 58.1

**Q.** And the self-aminoacylation [3]?
**A.** 6.75

**Q.** What about the self-aminoacylation [4] of the same sequence?
**A.** 3.9

**Q.** And the self-aminoacylation [5]?
**A.** 9.28

**Q.** What about the self-aminoacylation [6] of the same sequence?
**A.** 5.92

**Q.** How did the self-aminoacylation [1] turn out when “AUUCACCUAGGUGAUCCGGUG [Fam2.2 aminoacylation ribozyme variant]” was run?
**A.** 3.03

**Q.** And the self-aminoacylation [2]?
**A.** 22.1

**Q.** And the self-aminoacylation [3]?
**A.** 5.12

**Q.** What about the self-aminoacylation [4] of the same sequence?
**A.** 3.26

**Q.** What about the self-aminoacylation [5] of the same sequence?
**A.** 4.06

**Q.** What about the self-aminoacylation [6] of the same sequence?
**A.** 3.31

**Q.** “AUUCACCUAGGUGAUCUGGUG [Fam2.2 aminoacylation ribozyme variant]” was tested. Which self-aminoacylation [1] did it give?
**A.** 1.47

**Q.** What about the self-aminoacylation [2] of the same sequence?
**A.** 7.54

**Q.** What about the self-aminoacylation [3] of the same sequence?
**A.** 1.99

**Q.** And the self-aminoacylation [4]?
**A.** 1.34

**Q.** And the self-aminoacylation [5]?
**A.** 2.36

**Q.** What about the self-aminoacylation [6] of the same sequence?
**A.** 1.84

**Q.** Which self-aminoacylation [1] does the source give for “AUUCACCUAGGUUAUAGGGUG [Fam2.2 aminoacylation ribozyme variant]” here?
**A.** 2.11

**Q.** What about the self-aminoacylation [2] of the same sequence?
**A.** 14.1

**Q.** What about the self-aminoacylation [3] of the same sequence?
**A.** 3.65

**Q.** What about the self-aminoacylation [4] of the same sequence?
**A.** 2.23

**Q.** And the self-aminoacylation [5]?
**A.** 4

**Q.** What about the self-aminoacylation [6] of the same sequence?
**A.** 3.5

**Q.** For “AUUCACCUAGGUUAUCCGGUG [Fam2.2 aminoacylation ribozyme variant]”, which self-aminoacylation [1] is on record?
**A.** 3.77

**Q.** And the self-aminoacylation [2]?
**A.** 42.3

**Q.** And the self-aminoacylation [3]?
**A.** 7.05

**Q.** What about the self-aminoacylation [4] of the same sequence?
**A.** 3.8

**Q.** What about the self-aminoacylation [5] of the same sequence?
**A.** 8.66

**Q.** And the self-aminoacylation [6]?
**A.** 5.66

**Q.** Which self-aminoacylation [1] does the source give for “AUUCACCUAGGUUAUCGAGUG [Fam2.2 aminoacylation ribozyme variant]” here?
**A.** 1.42

**Q.** And the self-aminoacylation [2]?
**A.** 2.32

**Q.** And the self-aminoacylation [3]?
**A.** 1.97

**Q.** And the self-aminoacylation [4]?
**A.** 1.4

**Q.** What about the self-aminoacylation [5] of the same sequence?
**A.** 2.35

**Q.** And the self-aminoacylation [6]?
**A.** 1.89

**Q.** How did the self-aminoacylation [1] turn out when “AUUCACCUAGGUUAUUGGGUG [Fam2.2 aminoacylation ribozyme variant]” was run?
**A.** 3.15

**Q.** What about the self-aminoacylation [2] of the same sequence?
**A.** 45

**Q.** What about the self-aminoacylation [3] of the same sequence?
**A.** 5.84

**Q.** What about the self-aminoacylation [4] of the same sequence?
**A.** 3.48

**Q.** And the self-aminoacylation [5]?
**A.** 7.19

**Q.** What about the self-aminoacylation [6] of the same sequence?
**A.** 6.1

**Q.** “AUUCACCUAGGUUCUCGGGUG [Fam2.2 aminoacylation ribozyme variant]” was tested. Which self-aminoacylation [1] did it give?
**A.** 2.68

**Q.** And the self-aminoacylation [2]?
**A.** 20.4

**Q.** What about the self-aminoacylation [3] of the same sequence?
**A.** 2.88

**Q.** What about the self-aminoacylation [4] of the same sequence?
**A.** 2.63

**Q.** What about the self-aminoacylation [5] of the same sequence?
**A.** 3.18

**Q.** What about the self-aminoacylation [6] of the same sequence?
**A.** 2.44
